Assay results as given in PMC9482650, “Quantitative fragmentomics allow affinity mapping of interactomes” (Nature Communications, 2022).

T1: SYNJ2BP, P57105
T1 sequence (P57105 8-110, limits assumed, looked up): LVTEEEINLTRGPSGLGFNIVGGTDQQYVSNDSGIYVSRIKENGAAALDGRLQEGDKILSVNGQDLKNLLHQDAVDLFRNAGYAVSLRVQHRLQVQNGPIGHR

T2: RADIL, Q96JH8
T2 sequence (Q96JH8 971-1071, limits assumed, looked up): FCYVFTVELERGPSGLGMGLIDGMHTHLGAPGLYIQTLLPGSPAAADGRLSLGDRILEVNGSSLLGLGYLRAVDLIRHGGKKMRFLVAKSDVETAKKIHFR

T3: DLG3_3, Q92796
T3 sequence (Q92796 374-475, limits assumed, looked up): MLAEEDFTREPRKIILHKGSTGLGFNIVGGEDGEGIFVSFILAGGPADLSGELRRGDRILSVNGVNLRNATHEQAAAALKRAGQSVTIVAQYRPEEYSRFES

T4: PARD3B_1, Q8TEW8
T4 sequence (Q8TEW8 196-299, limits assumed, looked up): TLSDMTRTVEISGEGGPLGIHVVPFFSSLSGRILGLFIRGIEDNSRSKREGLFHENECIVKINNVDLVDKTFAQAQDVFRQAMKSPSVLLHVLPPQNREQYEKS

T5: APBA3_1, O96018
T5 sequence (O96018 389-490, limits assumed, looked up): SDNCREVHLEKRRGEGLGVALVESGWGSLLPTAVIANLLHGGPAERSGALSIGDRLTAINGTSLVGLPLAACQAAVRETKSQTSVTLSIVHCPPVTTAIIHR

T6: MPP6, Q9NZW5
T6 sequence (Q9NZW5 125-219, limits assumed, looked up): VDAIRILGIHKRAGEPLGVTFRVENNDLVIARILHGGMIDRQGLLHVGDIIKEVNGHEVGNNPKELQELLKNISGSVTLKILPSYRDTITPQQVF

T7: LRRC7, Q96NW7
T7 sequence (Q96NW7 1440-1537, limits assumed, looked up): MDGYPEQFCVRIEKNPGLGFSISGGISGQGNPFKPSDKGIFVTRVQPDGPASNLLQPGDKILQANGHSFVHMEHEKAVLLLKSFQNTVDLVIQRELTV

T8: LIN7B, Q9HAP6
T8 sequence (Q9HAP6 88-185, limits assumed, looked up): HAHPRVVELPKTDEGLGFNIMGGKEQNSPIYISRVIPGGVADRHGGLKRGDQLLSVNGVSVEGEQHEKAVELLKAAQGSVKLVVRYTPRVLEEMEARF

T9: SNTG2, Q9NY99
T9 sequence (Q9NY99 68-166, limits assumed, looked up): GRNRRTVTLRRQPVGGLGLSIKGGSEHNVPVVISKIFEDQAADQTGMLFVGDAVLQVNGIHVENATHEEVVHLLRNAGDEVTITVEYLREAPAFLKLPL

T10: MPDZ_10, O75970
T10 sequence (O75970 1624-1722, limits assumed, looked up): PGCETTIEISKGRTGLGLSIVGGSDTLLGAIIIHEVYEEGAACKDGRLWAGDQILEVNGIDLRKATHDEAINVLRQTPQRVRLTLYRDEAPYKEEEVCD


How the values were obtained:
Test in all cases: holdup assay
Design in all cases: key: below the threshold = too weak to quantify, mostly under pKd 3.1 to 4
Settings in all cases: plain residues with an end cap or a label only (N-terminal biotin on a linker: ado-ado)
[1] = molecular target: SNX27, Q96L92
[2] = molecular target: NOS1, P29475
[3] = molecular target: T1, SYNJ2BP, P57105
[4] = molecular target: Inadl_6, Q8NI35
[5] = molecular target: T2, RADIL, Q96JH8
[6] = molecular target: DLG1_3, Q12959
[7] = molecular target: T3, DLG3_3, Q92796
[8] = molecular target: Inadl_2, Q8NI35
[9] = molecular target: Inadl_9, Q8NI35
[10] = molecular target: T4, PARD3B_1, Q8TEW8
[11] = molecular target: T5, APBA3_1, O96018
[12] = molecular target: FRMPD3, Q5JV73
[13] = molecular target: T6, MPP6, Q9NZW5
[14] = molecular target: T7, LRRC7, Q96NW7
[15] = molecular target: NHERF2_2, Q15599
[16] = molecular target: NHERF4_1, Q86UT5-2
[17] = molecular target: GRASP, Q7Z6J2
[18] = molecular target: T8, LIN7B, Q9HAP6
[19] = molecular target: MAGI1_2, Q96QZ7
[20] = molecular target: PARD3_3, Q8TEW0
[21] = molecular target: TJP2_1, Q9UDY2
[22] = molecular target: DLG4_3, P78352
[23] = molecular target: MAST1, Q9Y2H9
[24] = molecular target: T9, SNTG2, Q9NY99
[25] = molecular target: AHNAK1, Q09666
[26] = molecular target: IL16_4, Q14005
[27] = molecular target: T10, MPDZ_10, O75970
[28] = molecular target: DLG5_1, Q8TDM6
DLG5_1, Q8TDM6, sequence (Q8TDM6 617-713): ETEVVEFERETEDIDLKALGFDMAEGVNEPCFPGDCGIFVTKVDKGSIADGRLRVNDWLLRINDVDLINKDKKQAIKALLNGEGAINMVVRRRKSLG

DLG1_3, Q12959, sequence (Q12959 457-571): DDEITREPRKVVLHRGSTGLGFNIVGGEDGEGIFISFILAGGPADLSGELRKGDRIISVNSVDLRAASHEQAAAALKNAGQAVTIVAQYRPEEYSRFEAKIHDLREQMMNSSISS
FRMPD3, Q5JV73, sequence (Q5JV73 12-100): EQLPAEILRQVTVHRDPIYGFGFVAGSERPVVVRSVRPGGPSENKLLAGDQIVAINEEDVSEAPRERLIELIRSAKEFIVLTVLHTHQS
Inadl_2, Q8NI35, sequence (Q8NI35 238-335): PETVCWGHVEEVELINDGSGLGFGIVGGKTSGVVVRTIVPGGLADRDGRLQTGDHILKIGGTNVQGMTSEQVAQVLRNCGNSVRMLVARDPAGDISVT
MAST1, Q9Y2H9, sequence (Q9Y2H9 962-1065): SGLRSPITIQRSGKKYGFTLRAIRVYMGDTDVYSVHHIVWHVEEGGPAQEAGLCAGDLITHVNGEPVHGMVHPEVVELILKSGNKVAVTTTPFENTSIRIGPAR
PARD3_3, Q8TEW0, sequence (Q8TEW0 582-685): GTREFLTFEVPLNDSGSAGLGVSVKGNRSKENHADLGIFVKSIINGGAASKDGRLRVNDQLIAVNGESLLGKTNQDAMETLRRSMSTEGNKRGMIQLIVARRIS
TJP2_1, Q9UDY2, sequence (Q9UDY2 24-128): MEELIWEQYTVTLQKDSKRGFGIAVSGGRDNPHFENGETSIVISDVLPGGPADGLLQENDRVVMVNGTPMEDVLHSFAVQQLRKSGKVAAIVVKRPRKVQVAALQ
AHNAK1, Q09666, sequence (Q09666 4-100): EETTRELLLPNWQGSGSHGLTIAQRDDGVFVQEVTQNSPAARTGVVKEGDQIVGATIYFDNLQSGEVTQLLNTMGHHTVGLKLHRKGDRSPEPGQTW
DLG4_3, P78352, sequence (P78352 306-403): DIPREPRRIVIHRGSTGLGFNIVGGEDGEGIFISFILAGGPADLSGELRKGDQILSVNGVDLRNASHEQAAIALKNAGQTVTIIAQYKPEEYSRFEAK
NOS1, P29475, sequence (P29475 9-101): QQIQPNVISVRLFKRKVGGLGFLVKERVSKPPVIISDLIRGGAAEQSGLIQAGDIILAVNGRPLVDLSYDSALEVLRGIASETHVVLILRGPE
IL16_4, Q14005, sequence (Q14005 1229-1329): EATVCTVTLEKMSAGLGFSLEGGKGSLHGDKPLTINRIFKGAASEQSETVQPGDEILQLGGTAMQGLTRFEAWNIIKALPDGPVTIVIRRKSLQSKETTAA
MAGI1_2, Q96QZ7, sequence (Q96QZ7 456-580): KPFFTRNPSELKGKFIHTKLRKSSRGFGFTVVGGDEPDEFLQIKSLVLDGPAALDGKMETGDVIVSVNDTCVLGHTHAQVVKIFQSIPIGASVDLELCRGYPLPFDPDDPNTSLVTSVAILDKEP
NHERF2_2, Q15599, sequence (Q15599 142-238): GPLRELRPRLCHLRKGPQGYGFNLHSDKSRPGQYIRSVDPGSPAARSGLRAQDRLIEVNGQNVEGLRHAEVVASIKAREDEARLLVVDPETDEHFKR
NHERF4_1, Q86UT5-2, sequence (Q86UT5 other isoform, or with tags, fused parts or gaps): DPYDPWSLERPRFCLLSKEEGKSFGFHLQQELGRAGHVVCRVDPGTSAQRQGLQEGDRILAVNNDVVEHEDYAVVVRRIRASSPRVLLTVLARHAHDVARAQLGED
Inadl_6, Q8NI35, sequence (Q8NI35 1058-1167): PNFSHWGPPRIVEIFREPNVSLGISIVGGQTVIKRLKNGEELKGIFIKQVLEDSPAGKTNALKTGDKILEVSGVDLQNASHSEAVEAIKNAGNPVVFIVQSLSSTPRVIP
Inadl_9, Q8NI35, sequence (Q8NI35 1530-1615): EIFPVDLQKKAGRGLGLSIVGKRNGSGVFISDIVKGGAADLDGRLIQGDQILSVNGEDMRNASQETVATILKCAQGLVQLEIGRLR
GRASP, Q7Z6J2, sequence (Q7Z6J2 96-193): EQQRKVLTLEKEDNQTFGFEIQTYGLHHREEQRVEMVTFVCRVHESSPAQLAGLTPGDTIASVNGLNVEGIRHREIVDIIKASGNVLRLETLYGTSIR

Binder	pKd [1]	pKd [2]	pKd [3]	pKd [4]	pKd [5]	pKd [6]	pKd [7]	pKd [8]	pKd [9]	pKd [10]	pKd [11]	pKd [12]	pKd [13]	pKd [14]	pKd [15]	pKd [16]	pKd [17]	pKd [18]	pKd [19]	pKd [20]	also measured
SPDRDRESIV [SCN5A, Q14524]	5.26	3.7	4.47	below the threshold	4.12	below the threshold	below the threshold	below the threshold	3.54	below the threshold	below the threshold	below the threshold	below the threshold	3.48	below the threshold	below the threshold	below the threshold	below the threshold	3.51	3.86	pKd [21]: below the threshold; pKd [22]: below the threshold; pKd [23]: 3.83; pKd [24]: 4.69; pKd [25]: below the threshold; pKd [26]: below the threshold; pKd [27]: 3.55; pKd [28]: below the threshold
ARESQKVSHV [FAM110B, Q8TC76]	4.42	3.55	4.31	4.05	4.55	below the threshold	below the threshold	below the threshold	3.9	below the threshold	below the threshold	below the threshold	below the threshold	below the threshold	below the threshold	3.74	3.8	below the threshold	4.09	below the threshold	pKd [21]: 3.87; pKd [22]: below the threshold; pKd [23]: 4.13; pKd [24]: 4.08; pKd [25]: below the threshold; pKd [26]: below the threshold; pKd [27]: 4.08; pKd [28]: below the threshold
TNSRHGETTV [FZD2, Q14332]	5.64	3.79	5.08	below the threshold	4	4.14	4.24	below the threshold	3.74	below the threshold	below the threshold	below the threshold	below the threshold	below the threshold	below the threshold	below the threshold	3.56	3.82	4.2	below the threshold	pKd [21]: below the threshold; pKd [22]: 4.24; pKd [23]: below the threshold; pKd [24]: 4.29; pKd [25]: below the threshold; pKd [26]: below the threshold; pKd [27]: below the threshold; pKd [28]: 3.48
STKRKLASAV [NCF1, P14598]	below the threshold	4.07	4.85	below the threshold	below the threshold	below the threshold	below the threshold	below the threshold	below the threshold	below the threshold	below the threshold	below the threshold	below the threshold	below the threshold	below the threshold	below the threshold	3.65	below the threshold	5.08	below the threshold	pKd [21]: below the threshold; pKd [22]: 3.67; pKd [23]: below the threshold; pKd [24]: below the threshold; pKd [25]: below the threshold; pKd [26]: below the threshold; pKd [27]: 3.64; pKd [28]: below the threshold
